The results in this text go back to article PMC7041945, “Misfolded proteins bind and activate death receptor 5 to trigger apoptosis during unresolved endoplasmic reticulum stress” (eLife, 2020).

What all share (conditions): both partners purified
Assay [1] has as its target T1, Fc-tagged DR5 ectodomain (long isoform) (human, UniProt O14763 56-210).
T1 construct: DR5 extracellular domain, long isoform; 55 kDa on SDS-PAGE by the legend; also called Fc-tagged DR5 ECD; Fc-tagged DR5L ECD; source: recombinant, generated and purified at Genentech Inc
Kind of assay: pull-down; Fc-tagged ECD held on Dynabeads Protein G, incubated with peptide in 20 mM HEPES pH 7.2, 100 mM KOAc, 0.2% Tween-20, 1 hr at RT; Coomassie-stained SDS-PAGE.

Assay [2] has as its target T1, Fc-tagged DR5 ectodomain (long isoform). Kind of assay: peptide or protein array; 18-residue peptides tiled on the array; 500 nM Fc-tagged DR5 ECD in 50 mM HEPES pH 7.2, 250 mM NaCl, 10% glycerol, 1 hr at room temperature; detected with anti-Fc.
In assay [3] the target is T2, FLAG-tagged DR5 long isoform ECD (human).
T2 construct: human DR5 ECD, long isoform, residues 72-213; Dimer without peptide by cross-linking; multimers with peptide; also called FLAG-tagged DR5L ECD; recombinant DR5L ECD; source: SF21 (baculovirus), secreted, purified (HisTrapFF, SuperDex200); not shown: FLAG, C-terminal, kept
T2 sequence (chain, as listed by the source): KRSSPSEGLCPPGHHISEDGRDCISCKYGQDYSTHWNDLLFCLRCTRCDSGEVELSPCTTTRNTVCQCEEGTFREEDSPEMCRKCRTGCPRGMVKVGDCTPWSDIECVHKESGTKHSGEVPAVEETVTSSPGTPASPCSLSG
Kind of assay: SEC; 25 μM recombinant DR5L ECD alone or pre-incubated overnight at 4°C with 100 or 400 μM fluorescein-conjugated peptide or 25 μM TRAIL; SuperDex200 10/300 GL, 30 mM HEPES pH 7.2, 150 mM NaCl; fractions on SDS-PAGE, fluorescence scan and Coomassie. Background: Size exclusion chromatography separates by hydrodynamic size, large species first.

No end group written: not given here.

B1: MPZ-ecto^VD peptide (peptide)
peptide: VSDDISFTWRYQPEGGRD
notes: stretch of the ectodomain of human myelin protein zero; source: synthetic peptide, GenScript (>95% purity)
B1: in assay [1], the binding result was “binds”.

B2: MPZ-ecto peptide (peptide)
peptide: FTWRYQPEGGRDAISIFHYA
notes: stretch of the ectodomain of human myelin protein zero; The array spots are 18-residue peptides; also called spots C18-C19 of the peptide array; source: synthetic peptide, GenScript (>95% purity); as spots C18-C19 on the peptide array of the MIT Biopolymers Laboratory
With B2, in assay [2], the binding result was “binds”.

B3: fluorescein-conjugated MPZ-ecto peptide (peptide)
peptide: FTWRYQPEGGRDAISIFHYA
modifications: also: fluorescein-conjugated, site not given here
notes: stretch of the ectodomain of human myelin protein zero; also called fluorescein-labeled MPZ-ecto peptide; source: synthetic peptide
For the molecule B3, in assay [3], the binding result was “binds”.
